Experimental findings from patent publication US20220176020A1, “Improved Bone Implant Matrix Comprising Proline-Rich Peptide And Method Of Preparing The Same” (Industrie Biomediche Insubri S.A., priority 2019, published 2022) are described below.

Data set [1] in a line: Release profile of FITC-labelled PRP from SBP in 10 ml purified water. The format is physicochemical. The conditions noted are these: for period of highest release rate / release of peptide: 10 ml purified water; for release of peptide: FITC on C- or N-terminal. As to the method: For 4 days the solution was analysed every 24 h using UV-vis, then 48 h after, and finally […] after. The water was changed every time to better simulate in vivo conditions, maximizing the drive force. Having a FITC+H2O calibration curve, the absorbance could be related to the concentration. Using a known quantity of water, the mass released could be derived from the measured concentration.
For a proper FITC release profile, also samples of bone implant matrix, identified as “SB”, reproduced according to example 3 were studied, since other components of the “SB” is likely to be released, the blank used for the spectroscopy was based on a water+“SB” solution. […] To identify the presence of “PRP” in the aqueous solution, FITC molecules were either attached to the C- or N-terminal of the peptide before loading.
Calibration was used to derive the concentration of FITC released in the water solution at the given time points. With a known quantity of water used at a given time, the mass released can be derived.
Best fit plots where made using the inbuild best-fit function of Graph (Software) assuming both a logarithmic and power function. In general, the logarithmic functions were more accurate (R^2-values closer to 1).

Data set [2] has as its system MC3T3-E1 cells. The experiment in a line: Real-time PCR of osteogenic marker mRNA levels (COL1A1, ALP, OC, VEGFA). The class given is cell-based, murine. The conditions noted are these: FIG. 10; for COL1A1 mRNA levels: after 14 days; for OC level: time at which highest/max is reached: measured at 1, 3, 7 and 14 days. As to the method:
The cells assessed was murine pre-osteoblastic cell line (MC3T3-E1) obtained from the German Collection of Micro-organisms and Cell Cultures (DSMC, Braunschweig, Germany). MC3T3-E1 cells were routinely cultured at 37° C. in a humidified atmosphere of 5% CO2, and maintained in α-MEM supplemented with 10% foetal calf serum (FCS) and antibiotics (50 IU penicillin/ml and 50 μg streptomycin/ml). Cells were subcultured 1:4 before reaching confluence using PBS and trypsin/EDTA. All experiments were performed in the same passage of the MC3T3-E1 cells.
Then, cells were maintained static at 37° C. in a humidified atmosphere of 5% CO2 for up to 14 days. The same number of cells were cultured in parallel in plastic in all the experiments.
Total RNA was isolated with Tripure (Roche Diagnostics) and RNA was quantified using a spectrophotometer set at 260 nm. Real-time PCR was performed for two reference genes and several target gene (Table) The same amount of total RNA from each sample (370 ng) was reverse transcribed to cDNA at 37° C. for 60 min in a final volume of 20 μl, using High Capacity RNA to cDNA kit (Applied Biosystems). Each cDNA was diluted 1/7 and these dilutions are used to carry on the quantitative PCR.
Real-time PCR was performed in the Lightcycler 480® (Roche Diagnostics, Germany) using SYBR green detection. For each reaction, 7 μl of Lightcycler-FastStart DNA MasterPLUS SYBR Green I, 0.5 μM of sense and antisense specific primer and 3 μl of the cDNA dilution in a final volume of 10 μl was added. The normal amplification program consisted of a preincubation step for denaturation of the template cDNA (95° C.), followed by 45 cycles consisting of a denaturation step (95° C.), an annealing step (60° C., for all expect for ALP and osterix, which were 65° C. and 68° C. respectively) and an extension step (72° C.). Real-time efficiencies were calculated from the given slopes in the LightCycler 480 software using serial dilutions.
Relative quantification after PCRWas calculated by dividing the concentration of the target gene in each sample by the mean of the concentration of the two reference genes (Housekeeping genes) in the same sample using the advanced relative quantification method provided by the LightCycler 480 analysis software version 1.5 (Roche Diagnostics, Mannheim, Germany).

No end group written: not given here. *: point of attachment. FITC = O=C1OC2(c3ccc(O)cc3Oc3cc(O)ccc32)c2ccc(NC(=S)*)cc21

For “PLV PSQ PLV PSQ PLV PSQ PQP PLPP (PLVPSQPLVPSQPLVPSQPQPPLPP; proline rich peptide) [P2, artificial Proline-Rich Peptide]”, the “period of highest release rate” value in data set [1] was “highest release rate the two first days”. Further, the initial release entry in data set [1] (FIG. 2, comparison P2 vs P5) is reported as “higher initial release than P5”. Further, the release of peptide in data set [1] (after 14 days) is 11.75 to 14.01 µg.

For “PHQ PMQ PQP PVH PMQ PLP PQP PLPP (PHQPMQPQPPVHPMQPLPPQPPLPP; proline rich peptide) [P6, artificial Proline-Rich Peptide]”, in data set [2], the “COL1A1 mRNA levels” value is “raised significantly” and the “OC level: time at which highest/max is reached” value was 7 days.

Turning to “PLV PSS PLV PCC PLV PCC PSP PLPP (PLVPSSPLVPCCPLVPCCPSPPLPP; proline rich peptide) [P5, artificial Proline-Rich Peptide]”, in data set [2], the “COL1A1 mRNA levels” value is recorded as “drop” and the “OC level: time at which highest/max is reached” value was “fairly stable”. Also, in data set [1], the “period of highest release rate” value is “highest release rate the two first days”. In data set [1] (after 14 days), the release of peptide lay within 8.75 to 9.90 µg.

In the case of “P2N: PRP version P2 (SEQ ID 4) with FITC attached on the N terminal ({FITC}-PLVPSQPLVPSQPLVPSQPQPPLPP)”, the release rate entry in data set [1] (after 14 days, FIG. 2) was “jump in release rate”.
